Key:
[1] = target: T1, REEE peptide (mimetic of the Nt-R cargo degradation signal)
T1 peptide: REEE

[2] = target: T2, ZZ domain of p300 (p300ZZ) (human); assay: value cited from earlier reference
T2 chain: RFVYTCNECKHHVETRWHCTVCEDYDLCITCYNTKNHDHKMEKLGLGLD

[3] = target: T3, ZZ domain of HERC2 (HERC2ZZ, aa 2702–2755 with additional tryptophan at the C-terminus) (human, UniProt O95714 2702-2755); assay: value cited from earlier reference
T3 chain: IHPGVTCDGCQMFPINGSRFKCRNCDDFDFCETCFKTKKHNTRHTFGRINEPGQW

B1: p62 ZZ (protein)
chain: not shown
Kd [1]: 1900 nM

B2: histone H3_(1–12) peptide (aa 1–12 of H3) (peptide)
peptide: ARTKQTARKSTG
modifications: zinc-bound (2 Zn2+ expected for a ZZ finger); limits from the UniProt ZZ-type feature, construct limits not given
Kd [2]: 8.8 µM

ARTKQTARKSTG
Kd [3]: 15 µM

— article PMC9001736 (2022)
